# Assay results as given in patent publication US20230391845A1, “GLP-1, GIP AND GLUCAGON RECEPTOR TRIPLE AGONISTS” (priority 2020, published 2023).
# Where two headings read alike, the source gives them in different places. *1 amine or outer side, *2 acyl side, *3 side chain or, on linkers, in order; H or OH if unused. Where a SMILES comes first, the peptide text is derived from it. Where no end group is shown, it is not given here. Side-chain parts run from the residue outwards. [ ]: non-standard residue; d: D form. The star is where a group is joined. C20 diacid = O=C(O)CCCCCCCCCCCCCCCCCCC(=O)*; γGlu = O=C(O)[C@H](CCC(=O)[*:2])N[*:1]; εLys = N[C@@H](CCCCN[*:1])C(=O)[*:2]; Aib = CC(C)(N)C(=O)O
# B1: Compound No. 2 (peptide)
# peptide: Y[Aib]QGTFTSDYSIYLDKKAA[Aib]EFVNWLLAGGPSSGAPPPS-NH2
# modifications: not fully specified (residue 17); printed as Y-Aib-QGTFTSDYSIYLDK-K[2-[2-[2-[[2-[2-[2-[[(4S)-4-carboxy-4-(17-carboxyheptadecanoylamino)butanoyl]amino]ethoxy]ethoxy]acetyl]amino]ethoxy]ethoxy]acetyl]-AA-Aib-EFVNWLLAGGPSSGAPPPS-NH2
# B2: Compound No. 1 (peptide)
# peptide: Y[Aib]QGTFTSDYSIYLDKQAA[Aib]EFVNWLLAGGPSSGAPPPS-NH2
# modifications: not fully specified (residue 16); printed as Y-Aib-QGTFTSDYSIYLD-K[2-[2-[2-[[2-[2-[2-[[(4S)-4-carboxy-4-(17-carboxyheptadecanoylamino)butanoyl]amino]ethoxy]ethoxy]acetyl]amino]ethoxy]ethoxy]acetyl]-QAA-Aib-EFVNWLLAGGPSSGAPPPS-NH2
# B3: Compound No. 3 (peptide)
# peptide: Y[Aib]QGTFTSDYSIYLDKQAA[Aib]KFVNWLLAGGPSSGAPPPS-NH2
# modifications: not fully specified (residue 21); printed as Y-Aib-QGTFTSDYSIYLDKQAA-Aib-K[2-[2-[2-[[2-[2-[2-[[(4S)-4-carboxy-4-(17-carboxyheptadecanoylamino)butanoyl]amino]ethoxy]ethoxy]acetyl]amino]ethoxy]ethoxy]acetyl]-FVNWLLAGGPSSGAPPPS-NH2
# Tests used:
# [1] = Maximal efficacy study in DIO mice, daily s.c. dose titration for up to 60 days (body weight, food intake); format: in vivo, C57BL/6J male mice; settings: for Absolute BW (grams) Day 0: Day 0 (baseline); for Absolute BW (grams) Day 0 / Absolute BW (grams) Last day of treatment / Change in BW (%) Last day of treatment: mean ± SEM; for Absolute BW (grams) Last day of treatment / Change in BW (%) Last day of treatment / Average food intake per mouse (grams/day): s.c. once daily; for Absolute BW (grams) Last day of treatment / Change in BW (%) Last day of treatment: dose titration of Table 4, last day of treatment; for Average food intake per mouse (grams/day): dose titration of Table 4, mean ± SEM, n = 1-2
# Method: The purpose of this example is to assess the in vivo effect of selected triple agonists on pharmacodynamic parameters in diet-induced obese (DIO) mice. The animals were treated once daily via subcutaneous injection with a liquid formulation of the triple agonist to be tested to assess effects on body weight, foot intake, and glucose tolerance.
# C57BL/6J male mice were purchased from Jackson Laboratories at approximately 8 weeks of age. Mice were group housed and fed a high-fat, high-sugar diet from Research Diets (D12331). Mice were maintained on this diet for 12 weeks prior to initializing the pharmacology studies. Mice exceeding a measured body weight of 50 grams were considered diet-induced obese (DIO) and included in pharmacology studies. Mice were exposed to a controlled 12 h:12 h light:dark cycle at ambient room temperature (22° C.) with ab libitum access to food and water. Studies were approved by and performed according to the guidelines of the Institutional Animal Care and Use Committee of the University of Cincinnati.
# All compounds in the study were formulated in the following buffer: 50 mM phosphate; 70 mM sodium chloride; 0.05% Tween-80, pH 7.4. Dosing solutions were formulated in glass vials and stored at 2-8° C. Dosing solutions were brought to room temperature before dosing and returned to 2-8° C. after dosing.
# DIO mice were distributed into groups (n=8 per group) such that statistical variations in the mean and standard deviations of fat mass and body weight were minimized between groups. The animals were grouped to receive treatment as follows: Vehicle or GLP-1/GIP/Gcg receptor triple agonists as described herein, where vehicle is 50 mM phosphate, 70 mM sodium chloride; 0.05% (v/v) Tween-80, pH 7.4. The test compounds were dissolved in the vehicle, to stock concentrations of […], then diluted 50- to 200-fold in the vehicle to achieve the desired dosing solution concentrations. Animals were dosed subcutaneously once daily in the morning for each day of treatment with dosing solution at a volume of 2-5 μL per gram of body weight as necessary to achieve the desired dose (e.g. 0.3 nmol/kg, 1.0 nmol/kg, or 3.0 nmol/kg).
# Body weight (BW) and food intake were measured immediately prior to dosing each day. The percent change in body was calculated individually for each mouse based on initial body weight prior to the first injection.
# In one study, DIO mice received a daily subcutaneous dose for up to 60 days of one of the following: vehicle, Compound No. 21, Compound No. 30, or Compound No. 33. The dose of each compound was up-titrated to maximal efficacy based on the titration schedule included in Table 4. Mice that achieved body weight normalization, defined as a body weight of 22.5 g or less, were voluntarily removed from the study. All triple agonist compounds tested resulted is substantially greater reductions of body weight and food intake than vehicle. […] This may be explained by the similar GLP-1R and GIPR in vitro potency but reduced in vitro GcgR potency of Compound No. 21 compared to Compound No. 30 and Compound No. 33 when investigated with the protocol described in Example 2 except using the mouse-specific receptors.
# [2] = Pharmacokinetic study in minipigs, i.v. administration; design: species or system Göttingen minipigs; settings: female, Göttingen, minipig, in vivo, iv; minipigs, i.v. administration, harmonic mean; read-out: Terminal half-life t1/2 (converted)
# How it was run: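 Terminal half-life, reported as harmonic mean, came from non-compartmental fits of plasma levels measured by antibody assay or LCMS over up to 14 days. Dosing was i.v., typically 1.5-2 nmol/kg, through implanted caval catheters in fasted female Göttingen minipigs of 16-35 kg.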
# human glucagon receptor [3] = target: T1, human glucagon receptor (human, UniProt P47871 26-477); assay: cell-based or functional assay
# [4] = target: T2, human glucose-dependent insulinotropic polypeptide receptor (human, UniProt P48546 22-466); assay: cell-based or functional assay
# T2 sequence (looked up): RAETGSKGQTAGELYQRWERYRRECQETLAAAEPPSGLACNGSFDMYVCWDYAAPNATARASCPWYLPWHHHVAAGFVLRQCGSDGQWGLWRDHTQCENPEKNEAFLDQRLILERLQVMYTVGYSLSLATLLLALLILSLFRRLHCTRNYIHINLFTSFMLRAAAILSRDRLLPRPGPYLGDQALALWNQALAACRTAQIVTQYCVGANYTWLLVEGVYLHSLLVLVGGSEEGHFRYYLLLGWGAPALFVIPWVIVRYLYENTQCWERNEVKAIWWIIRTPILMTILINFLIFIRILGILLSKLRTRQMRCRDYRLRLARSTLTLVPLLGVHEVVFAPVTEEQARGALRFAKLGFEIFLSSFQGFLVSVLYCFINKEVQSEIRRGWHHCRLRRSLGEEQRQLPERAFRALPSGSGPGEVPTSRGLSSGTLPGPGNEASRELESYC
# [5] = target: T3, human glucagon-like peptide 1 receptor (human, UniProt P43220 24-463); assay: cell-based or functional assay
# human glucagon receptor [6] = target: T1, human glucagon receptor; assay: cell-based or functional assay; remark: listed apart in the source
# [7] = target: T2, human glucose-dependent insulinotropic …; assay: cell-based or functional assay; remark: listed apart in the source
# [8] = target: T3, human glucagon-like peptide 1 receptor; assay: cell-based or functional assay; remark: listed apart in the source
# T1 sequence (P47871 26-477): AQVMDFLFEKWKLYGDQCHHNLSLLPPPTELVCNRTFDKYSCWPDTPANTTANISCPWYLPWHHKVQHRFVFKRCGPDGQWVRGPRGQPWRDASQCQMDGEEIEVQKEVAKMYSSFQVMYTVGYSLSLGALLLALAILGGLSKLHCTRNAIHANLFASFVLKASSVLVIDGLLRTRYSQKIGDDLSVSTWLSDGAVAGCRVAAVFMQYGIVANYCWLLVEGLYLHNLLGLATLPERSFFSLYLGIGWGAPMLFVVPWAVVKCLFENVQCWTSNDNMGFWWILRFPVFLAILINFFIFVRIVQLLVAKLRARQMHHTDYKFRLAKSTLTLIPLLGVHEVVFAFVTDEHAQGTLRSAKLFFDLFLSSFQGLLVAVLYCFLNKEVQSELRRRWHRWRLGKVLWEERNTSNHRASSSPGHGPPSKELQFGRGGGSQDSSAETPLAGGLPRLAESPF
Molecule,Absolute BW (grams) Day 0 [1] [grams],Absolute BW (grams) Last day of treatment [1] [grams],Change in BW (%) Last day of treatment [1] [%],Average food intake per mouse (grams/day) [1] [grams/day],half-life [2] [h],hGcgR CRE Luc EC50 (pM) (human glucagon receptor [3]),hGIPR CRE Luc EC50 (pM) [4] [pM],hGLP-1R CRE Luc EC50 (pM) [5] [pM],hGcgR CRE Luc EC50 (pM) (human glucagon receptor [6]),hGIPR CRE Luc EC50 (pM) [7] [pM],hGLP-1R CRE Luc EC50 (pM) [8] [pM]
CC[C@H](C)[C@H](NC(=O)[C@H](CO)NC(=O)[C@H](Cc1ccc(O)cc1)NC(=O)[C@H](CC(=O)O)NC(=O)[C@H](CO)NC(=O)[C@@H](NC(=O)[C@H](Cc1ccccc1)NC(=O)[C@@H](NC(=O)CNC(=O)[C@H](Cc1c[nH]cn1)NC(=O)C(C)(C)NC(=O)[C@@H](N)Cc1c[nH]cn1)[C@@H](C)O)[C@@H](C)O)C(=O)N[C@@H](Cc1ccc(O)cc1)C(=O)N[C@@H](CC(C)C)C(=O)N[C@@H](CCC(=O)O)C(=O)N[C@@H](CCCCNC(=O)[C@@H](N)CCCCNC(=O)[C@@H](N)CCCCNC(=O)CC[C@H](NC(=O)CCCCCCCCCCCCCCCCCCC(=O)O)C(=O)O)C(=O)N[C@@H](CCCCN)C(=O)N[C@@H](Cc1ccc(O)cc1)C(=O)N[C@@H](C)C(=O)NC(C)(C)C(=O)N[C@@H](CCC(=O)O)C(=O)N[C@@H](Cc1ccccc1)C(=O)N[C@H](C(=O)N[C@@H](CCC(N)=O)C(=O)N[C@@H](Cc1c[nH]c2ccccc12)C(=O)N[C@@H](CC(C)C)C(=O)N[C@@H](CC(C)C)C(=O)N[C@@H](CCC(=O)O)C(=O)NCC(=O)NCC(=O)N1CCC[C@H]1C(=O)N[C@@H](CO)C(=O)N[C@@H](CO)C(=O)NCC(=O)N[C@@H](C)C(=O)N1CCC[C@H]1C(=O)N1CCC[C@H]1C(=O)N1CCC[C@H]1C(=O)N[C@@H](CO)C(N)=O)C(C)C [Compound No. 30] (H-H[Aib]HGTFTSDYSIYLEK([εLys-εLys-γGlu-C20 diacid])KYA[Aib]EFVQWLLEGGPSSGAPPPS-NH2; N-terminus assumed),56.2 ± 1.3,22.2 ± 0.3,−60.5 ± 0.4,1.39 ± 0.13,78,,,,,,
CC[C@H](C)[C@H](NC(=O)[C@H](CO)NC(=O)[C@H](Cc1ccc(O)cc1)NC(=O)[C@H](CC(=O)O)NC(=O)[C@H](CO)NC(=O)[C@@H](NC(=O)[C@H](Cc1ccccc1)NC(=O)[C@@H](NC(=O)CNC(=O)[C@H](Cc1c[nH]cn1)NC(=O)C(C)(C)NC(=O)[C@@H](N)Cc1c[nH]cn1)[C@@H](C)O)[C@@H](C)O)C(=O)N[C@@H](Cc1ccc(O)cc1)C(=O)N[C@@H](CC(C)C)C(=O)N[C@@H](CCC(=O)O)C(=O)N[C@@H](CCCCNC(=O)[C@@H](N)CCCCNC(=O)[C@@H](N)CCCCNC(=O)CC[C@H](NC(=O)CCCCCCCCCCCCCCCCCCC(=O)O)C(=O)O)C(=O)N[C@@H](CCCCN)C(=O)N[C@@H](C)C(=O)N[C@@H](C)C(=O)NC(C)(C)C(=O)N[C@@H](CCC(=O)O)C(=O)N[C@@H](Cc1ccccc1)C(=O)N[C@H](C(=O)N[C@@H](CCC(N)=O)C(=O)N[C@@H](Cc1c[nH]c2ccccc12)C(=O)N[C@@H](CC(C)C)C(=O)N[C@@H](CC(C)C)C(=O)N[C@@H](CCC(=O)O)C(=O)NCC(=O)NCC(=O)N1CCC[C@H]1C(=O)N[C@@H](CO)C(=O)N[C@@H](CO)C(=O)NCC(=O)N[C@@H](C)C(=O)N1CCC[C@H]1C(=O)N1CCC[C@H]1C(=O)N1CCC[C@H]1C(=O)N[C@@H](CO)C(N)=O)C(C)C [Compound No. 33] (H-H[Aib]HGTFTSDYSIYLEK([εLys-εLys-γGlu-C20 diacid])KAA[Aib]EFVQWLLEGGPSSGAPPPS-NH2),54.9 ± 2.6,24.8 ± 1.4,−54.5 ± 3.5,1.38 ± 0.25,47,,,,,,
B1,,,,,,47.6,49.8,7.1,47.6,49.8,7.1
B2,,,,,,157,23.7,8.6,157,23.7,8.6
B3,,,,,,34.7,27.5,5.4,34.7,27.5,5.4
